According to a protein production outcome set (Wang et al. 2014):

Test: label from the status in PepcDB records
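Also: failed if final PepcDB status was selected cloned or expressed and not failed if soluble or beyond.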

## MSLKAIGFEQPFKLSDGNLFKTFNLDIPEPKVHEILVKIQSISVNPVDTKQRLMDVSKAPRVLGFDAIGVVESVGNEVTMFNQGDIVYYSGSPDQNGSNAEYQLINERLVAKAPKNISAEQAVSLPLTGITAYETLFDVFGISRNRNENEGKTLLIINGAGGVGSIATQIAKAYGLRVITTASRNETIEWTKKMGADIVLNHKESLLNQFKTQGIELVDYVFCTFNTDMYYDDMIQLVKPRGHIATIVAFENDQDLNALKPKSLSFSHEFMFARPLNQTDDMIKHHEYLEDITNKVEQNIYQPTTTKVIEGLTTENIYQAHQILESNTMIGKLVINLNEGHHHHHH
  protein production: not failed

## MTKLEQIQQWTAQHHASMTYLSNPKTIEYLTGFGSDPIERVLALVVFPDQDPFIFAPALEVEVIKETGWQFPVIGYLDHENPWAMIADQVKQRHVNPEHVAIEKGQLQVARMEALAAQFSAPSFDLDITSFIEHMR
  protein production: not failed

## MKKLLVIRNDKIGDFMLCFPAFMMLKQSMPNIEITALVPNYTAPLAELCPAIDHLIIDNTDKQDPIAFKQVQQAVQNGQFDAVICFVSSWYNAKLTWQSGIRYRLAPATKLFQFLYNHRLTQRRSQSIKAESEYNLDLARAFLIDHHMMPVEPQLEHHHHHH
  protein production: not failed

## MFLDYFALGLLIFVALVIFYGIIVIHDIPYEIAKEREHPHQDAIHYAGWVSLFTLHALWPFLWIWATLWRKERGWGFQKLEAEQHDIHHRVDVLIDEVKQLRTELETLKTSSLSVPKSTPAASTSEEKQ
  protein production: failed

## SQSLYQALWNSADVLRSKMDANDYKSYLLGMVFYKYLSDKMLFFVAETMEEETESLDEALAVYRKYYEDEETHEDLLAVITDEMSYAIHPDLTFTALVERVNDGSFQLEDLAQGFRDIEQSDELYENLFEDIDLYSKKLGATPQKQNQTVAAVMKELAVLDVAGHAGDMLGDAYEYLIGQFATDSGKKAGEFYTPQPVAKLMTQIAFLGREDKQGFTLYDATMGSGSLLLNAKRYSRQPQTVVYFGQELNTSTYNLARMNMILHGVPIENQFLHNADTLDEDWPTQEPTNFDGVLMNPPYSAKWSASSGFMDDPRFSPFGKLAPKSKADFAFLLHGYYHLKQDNGVMAIVLPHGVLFRGNAEGTIRKALLEEGAIDTVIGLPANIFFNTSIPTTVIILKKNRTNRDVYFIDASKEFDKGKNQNIMTDAHIEKILNAYKSREDIDKFAHLASFEEIVENDYNLNIPRYVDTFEEEEVEPLTEIVAKINQTNATIESQTASLLDMLGQLHGTTPEADEELKAFVKAFKG
  protein production: failed

## RQKFINDVLHLLYRPLDWNQSIAKVMELLGRFTQADRSYIFENSPDDSYATNTFEWCQEGIAPQIHLLQHFEYSLMPSWKPLIVEKKMICASDISTLPLDLSETLAPQGIKSILAVSIFAQGRLYGYLGLDSCRKKREWSEEEIELLRSISTIIAGAIERRGWERSEKEQ
  protein production: failed

## MRNPFERMPTVLTADELIDKAFRRAEKAASSFKPRGNKVKKARLREELRVRTVSNVVRDNLRKVLERTPGLSTLPKFYQELVDVLVDRDTFHKAMAGIDWAIRIIRELEERYVERIRYSNDPNEIAELRRQFYGRVASVLRDIDDRLRYLNKAREVLKDLPVVDLEIPTVVIAGHPNVGKSTLLKALTTAKPEIASYPFTTRGINVGQFEDGYFRYQIIDTPGLLDRPISERNEIEKQAILALRYLGNLIIYIFDPSEHCGFPLEEQIHLFEEVHGEFKDLPFLVVINKIDVADEENIKRLEKFVKEKGLNPIKISALKGTGIDLVKEEIIKTLRPLAEKVAREKIERELRRYRSYLLEHHHHHH
  protein production: failed

## MSRTMAEVNRLLKKTAGLINKDTESPFQGEFRVGVDLGTADIQTIVLDADGNPLAGFMDWANVVRDGVVVDFFGASQIVREQVRRASAKLGIQIEQVTTSFPPGTDSRISTNVIEAAGLEVAGVIDEPSSVAQLLQLDHAAVVDIGGGTTGTAIIEEGRVVRSMDDATGGRHITLTLAGHFGLPYEEAEEMKRTSKDLALCRLAAPVIAKMADIVHGHIAGHKVPAIYLTGGSCALPGFLEVFAAEFPGIEIVMPSHPLYLTPLAIATYSDVLQTREQRVGLEHHHHHH
  protein production: failed

## LAALCPVAVPSGVQIYTIDGPLFFGAAATFERTLAGLHDQAEAVIFRLGRVPFADATAMHALDDVVRHFRQRHIEVRVCEANPRVAHKLREFGLLARIGQQDASISVLDALAELAPQPGTQVQAEAS
  protein production: failed

## MPTLFDDPLHQLPRPPRRVAAGVVHLPNFLGLAEQKALVAQARDLAREVVGTPLAMVRPKLKSGQMSVHMLHLGKYWASNPYRYVDVVDGFPVPPLPDSFVDLAHRALLSAGSLSNSLQSWSEAYRAEAALVNYYSPDASMGMHQDANEESEAPVISLSIGDTGIFRLGGTLNRNKPWTDIPLMSGDLIVFGGANRQAFHGIPSIEANTAPAGCGLKEGRINITIRQLALLEHHHHHH
  protein production: not failed

## MAHSPLVSIVVPAHNAEATLARALDCLLDQEIVDWEAVIVDDASTDRTPAIIAGYVEHDARFRTLRSSTSSAAGARNSGISTARGHWLMFLDADDWVDASFLAKMLAALKAAPDAVAAYCGSRRVMPDGELTPSSISTEVAIQPFETFARQCAIRTHALLVDREAIVGLGGFDVSLRTCENWDLWQRLAHLGKRWVMVDEPLAFYRVSPNSLSRNSTQMLADAEIVIARGFSADPRVSHPASGQANGAISANGGTASEALAWFALWNAASDCGRGSRSIDPQALRALPAGRKWAREIAEVAIDGLMVGSLSVPAQLAARWGRFGGPLTELIIELGKVWDNPAAGRRVQYQLEQMLLDADDLAAPRRLARTLGIRVDVRNPNAIELPEGIDRIYAYLMMDGQIEAVVQFGVLGTVTRDHWIELIQNVVPAERLADSTARLAGRSTVPQEGAGADTSNTFAAEALLFTAERRSDPDSHFGKLAQLTAEARELVRSSAEPEQPPAVPRRARAADTNDRTAFWNSYFATEDPWNYGSLYEQEKYQRQLEILPAGPIGRVLELACAEGHFTRQLAPRVSHLTATDISAIAIERARARCGDQPNIEFGVLDFAADMLPGEMDLIVCSEVLYYLDDLADLRRITKKFTEALAPGGSFITAHAFVLRDNVERTGFDWNTFGAQAISETLAATEGLVLEQSIQTELYRIDRFRRLSPDDLVTEPMIDHAPIRAQIEIGVARNIIWGGARALRRDVARNEQRQRVPVLMYHSVSDDGPAALARFRLTPAGFGSQMAWLRANGFHAINSEQLEGCIANRQPFVGRPVLITFDDGFQNFADHAWPTLRANDLTAEVFLVTDLVGKGAQWDAHNGPPTQLMDAGTVRRLAGEGAFFGSHMATHRAIDGLSSSDLAAELLRSRMFIERWTGRPTTAFTAPFSVTDRRLGRLARECGYRIGFGARHGPADLDCDLIDLPRIEIRGDRSLDDFVATVEAVLKER
  protein production: failed

## MASPNTTQPEIILSEEKKASLTTQSTSNNTNDGNILEEQKTLTSQQQPTPVPNTERTEDNVIENLKKTDLSNKDENTTISINTSTNTNINSNTNSNTNTNINSNINTDVNTNINTDINTNTNSNTNSNTNTNINTNANTNTNTNEKAQDEKFQYNGDVSKAFLSPPVFHLTEIMHDERCFKKTKGHVTVEINGDICIYGGMLHDKCVENFIRYVPGINLFEKMRLNSNDIVPRAFCSGNVITEDNKKNIIIFGGINEKDEIVDETYKFDFQAKKWELIGNKICPRARYKHASFSFNDFLYIHGGLDVNNSLLADMWCFSKNSWTPIKQIDRIPEPRYAHSLIFSFYGNAKLVFLFGGNKKGYNAALGDTWIFNINTNRWKEITNSSGSKPCARWGHSSQLFDNEWMIIYGGITNGWIDNYALSDMYALNIFTFSWFEVDISTSKNFDRGYYGSLCFLPYKKSLFVFGGTDNSEDHSDVFSMSPLVTYVSYKTLTGKIEQLNTRMKNINETSSENENMNISEFETKITELKEDINKINFMMKDFESKFCGKIKKLEKLNEQCEKLLSKNINTEELQNLEQRIRKLETSNVLMKHDSI
  protein production: failed

## MAMYIRVKRMKTTYFIQCDPTETVLDVKQKLFALIEQPVNNQRLVLMSTEEVLEDSKSLADQKVENDAVVALTLKKD
  protein production: not failed

## MARSQQFPSSTAVSVSPPAASSIAKPPQPVLDGLWAFAPNRDTLGGTAYFLKLPQGNWLIDAPAWHGETQAFVEEQGGLQGVFLTHRGAFGKAIAIQQHFDCDLVVQEQEAYLLPGANVTTFEQEQAIAPALTAIWTCGHSPGSACLYWEGHGGVLFTGRHLLPTRAGGVAPLRTAKTFHWPRQIRNTQMLCDRFSSETLAWICPGASSGFLRGRKAIASAYMQLQQLDWSALSEAQPLL
  protein production: failed

## MATGTATEKPKIVWNEGRHRFETDDHEAFIEYKMKNDGKVMDLVRTFVPPSKAGLGLASHLCVAAFEHASEHSFSIIPTCSYVSVYISSFLKKLR
  protein production: failed

## MTYKVLHVGAGGFGERWCDTFLPSNNSDGTIEVVGLVDIDARALEIGRKHLGLKAKQCFTSAAQAFKAVDADFCTIVIPPALHEGIVDLALERGMHILSEKPIAATMEASVRIADKVRVAGRKMAVTMSHRFDQDKSTLRALVSDEALGRVNTVSCRFAGDYRAYDSWGRFRHEMIHPMLIEGAVHHLDIMADLAGAPCTSIYARSWKPEWAEYKGETDVMVLMDFANGAHGVYEGSSAQATGLNDWTFEYVRVEAASGTAILDHREVEVFHRDPKRIYQKNRHGKGQQVSLLGGKKWKNSLLIEQFCHWLDGGPPMATNVEDNLQSVALIFSAIESARLGQPVKVQEFLQSFRKSASIETQ
  protein production: failed

## MAEDEIVVEEEQSQPQEITPVPPSSSSSPSLVVEDDDEMKLKHLEFIQVAAVYFAACFSTLYELAKDNAGPLKLGVENIEDCVRTVLAPLYEKFHDVPFKLLLFVDRKVDDVFFDVETYVPSLVKQASSQALTVATEVQRTGVVDTTKSIARSVRDKYEPAAEYYAATLWRLLNQLPLFPEVAHLVIPTAFYWSEKYNDAVRYVGDRDYFGAEYLPMIPIEKISDILEQDQCRAD
  protein production: failed

## MEPNIYQLALAALFGASFVAVSGFFMHFKALNLVLERGKERKENPDGDEPQNPTLVRRRSQVRRKVNDQYGRSPASLPDATPFTDGGGGGGGDTGRSNGHVYVDEIPPGLPRLHTPSEGRASVHGASSIRKTGSFVRPISPKSPVASASAFESVEESDDDDNLTNSEGLDASYLQANGDNEMPADANEEQISMAASSMIRSHSVSGDLHGVQPDPIAADILRKEPEQETFVRLNVPLEVPTSDEVEAYKCLQECLELRKRYVFQETVAPWEKEVISDPSTPKPNTEPFAHYPQGKSDHCFEMQDGVVHVFANKDAKEDLFPVADATAFFTDLHHVLKVIAAGNIRTLCHRRLVLLEQKFNLHLMLNADKEFLAQKSAPHRDFYNVRKVDTHVHHSACMNQKHLLRFIKSKLRKEPDEVVIFRDGTYLTLREVFESLDLTGYDLNVDLLDVHADKSTFHRFDKFNLKYNPCGQSRLREIFLKQDNLIQGRFLGEITKQVFSDLEASKYQMAEYRISIYGRKMSEWDQLASWIVNNDLYSENVVWLIQLPRLYNIYKDMGIVTSFQNILDNIFIPLFEATVDPDSHPQLHVFLKQVVGFDLVDDESKPERRPTKHMPTPAQWTNAFNPAFSYYVYYCYANLYVLNKLRESKGMTTITLRPHSGEAGDIDHLAATFLTCHSIAHGINLRKSPVLQYLYYLAQIGLAMSPLSNNSLFLDYHRNPFPVFFLRGLNVSLSTDDPLQIHLTKEPLVEEYSIAASVWKLSACDLCEIARNSVYQSGFSHALKSHWIGKDYYKRGPDGNDIHKTNVPHIRVEFRDTIWKEEMQQVYLGKAVISDEVVP
  protein production: not failed

## MGNFTFEEMNLMCIYNTGSRTGLIDSLREMRGELSPEETELRELTDSALTKLCAMTDEDFAQLELYPDFDQLEHHHHHH
  protein production: not failed

## MTKPILKKKERVDQLFSTDVKIIQNKEVFSYSIDSVLLSRFPKIPSRGLIVDLCSGNGAVGLFAATRTKAKIIEVELQERLADMAQRSIQLNDLTNQVSMIRDDLKNLLDHVPRSKVDLILCNPPYFKAAETSKKNLSEHYLLARHEIATNLEEICKISQQVLKTNGRLAMVHRPDRFLEIIDTFKKYKLAPKRLQFVYPKLGKDANMLLIETIKDGSPNGMKILPPLIVHKDNGDYTDNIHEIYFGKGHQAYMYVLKCADDSLYTGYTTDIKKRLATHNAGKGAKYTRARLPVELIYVEQFNHKNAAMSAEGKLKQKTRAQKLHYIEEHQHINLVSQF
  protein production: failed
